Data from PMC3988174.
Values belong to the binder of their own block, whether it stands above or below them.

Key:
[1] = molecular target: atToc159 G-domain bait (Arabidopsis thaliana) (UniProt O81283); assay: two-hybrid; pairwise split-ubiquitin yeast two-hybrid of isolated NubG-preys with Toc159G, Toc132G or Toc132AG bait in NMY51; growth on SD-LWHA (3-AT) and quantitative β-Gal assay, activity relative to a reference bait set to 100%
[2] = molecular target: atToc132 G-domain bait (Arabidopsis thaliana) (UniProt Q9SLF3); assay: as above
atToc132 G-domain bait (Arabidopsis thaliana), sequence (Q9SLF3 456-794): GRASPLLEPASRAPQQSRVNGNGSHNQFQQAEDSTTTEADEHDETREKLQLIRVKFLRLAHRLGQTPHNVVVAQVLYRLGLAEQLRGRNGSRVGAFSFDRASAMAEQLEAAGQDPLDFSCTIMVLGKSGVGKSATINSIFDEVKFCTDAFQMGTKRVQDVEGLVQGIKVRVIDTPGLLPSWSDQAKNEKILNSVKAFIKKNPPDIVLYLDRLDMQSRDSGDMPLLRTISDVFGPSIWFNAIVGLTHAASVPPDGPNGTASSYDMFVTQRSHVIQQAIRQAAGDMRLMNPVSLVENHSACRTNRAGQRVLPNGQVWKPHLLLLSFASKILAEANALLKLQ

atToc159 G-domain bait (Arabidopsis thaliana), sequence (O81283 728-1092): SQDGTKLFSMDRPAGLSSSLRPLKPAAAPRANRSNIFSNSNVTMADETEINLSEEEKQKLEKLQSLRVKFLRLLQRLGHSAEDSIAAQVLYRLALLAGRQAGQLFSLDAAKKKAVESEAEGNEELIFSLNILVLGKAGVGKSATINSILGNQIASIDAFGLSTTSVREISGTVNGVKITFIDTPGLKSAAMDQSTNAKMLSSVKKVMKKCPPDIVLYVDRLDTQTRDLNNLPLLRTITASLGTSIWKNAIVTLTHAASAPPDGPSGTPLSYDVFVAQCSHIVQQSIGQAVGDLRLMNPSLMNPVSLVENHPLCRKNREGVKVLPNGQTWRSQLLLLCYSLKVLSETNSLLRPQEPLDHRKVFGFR

B2: Ferredoxin-thioredoxin reductase subunit A (natural protein)
chain: MNLQAVSCSFGFLSSPLGVTPRTSFRRFVIRAKTEPSEKSVEIMRKFSEQYARRSGTYFCVDKGVTSVVIKGLAEHKDSYGAPLCPCRHYDDKAAEVGQGFWNCPCVPMRERKECHCMLFLTPDNDFAGKDQTITSDEIKETTANM
% increase in strength of interaction (β-Gal) with 132G against 159G [2]: 45.2%

B4: Light-Harvesting Chlorophyll-Protein Complex I Subunit A4 (natural protein)
chain: MATVTTHASASIFRPCTSKPRFLTGSSGRLNRDLSFTSIGSSAKTSSFKVEAKKGEWLPGLASPDYLTGSLAGDNGFDPLGLAEDPENLKWFVQAELVNGRWAMLGVAGMLLPEVFTKIGIINVPEWYDAGKEQYFASSSTLFVIEFILFHYVEIRRWQDIKNPGSVNQDPIFKQYSLPKGEVGYPGGIFNPLNFAPTQEAKEKELANGRLAMLAFLGFVVQHNVTGKGPFENLLQHLSDPWHNTIVQTFN
% decrease in strength of interaction (β-Gal) with Toc159G against Toc132G [1]: -38.5%

The next lines start with the values.

% increase in strength of interaction (β-Gal) with Toc159G against Toc132G [1]: 24%
B1: Photosystem II subunit X (natural protein)
chain: MASTSAMSLVTPLNQTRSSPFLKPLPLKPSKALVATGGRAQRLQVKALKMDKALTGISAAALTASMVIPEIAEAAGSGISPSLKNFLLSIASGGLVLTVIIGVVVGVSNFDPVKRT

% increase in strength of interaction (β-Gal) with Toc159G against Toc132G [1]: 40.5%
B3: Protochlorophyllide oxidoreductase B (natural protein)
chain: MALQAASLVSSAFSVRKDAKLNASSSSFKDSSLFGASITDQIKSEHGSSSLRFKREQSLRNLAIRAQTAATSSPTVTKSVDGKKTLRKGNVVVTGASSGLGLATAKALAETGKWNVIMACRDFLKAERAAKSVGMPKDSYTVMHLDLASLDSVRQFVDNFRRTETPLDVLVCNAAVYFPTAKEPTYSAEGFELSVATNHLGHFLLARLLLDDLKKSDYPSKRLIIVGSITGNTNTLAGNVPPKANLGDLRGLAGGLNGLNSSAMIDGGDFDGAKAYKDSKVCNMLTMQEFHRRFHEETGVTFASLYPGCIASTGLFREHIPLFRALFPPFQKYITKGYVSETESGKRLAQVVSDPSLTKSGVYWSWNNASASFENQLSEEASDVEKARKVWEISEKLVGLA
